The record followed here is article PMC10245438, “Domino-like effect of C112R mutation on ApoE4 aggregation and its reduction by Alzheimer’s Disease drug candidate” (Molecular Neurodegeneration, 2023).

Series [1] concerns the molecule itself. Kind of series: crystal structure; His-MBP-ApoE4M ~8 mg/ml, hanging drop vapour diffusion; four crystals in two space groups (P212121, P3121); dimeric unit of two NTDs (chains A and B) from crystal packing contacts.
Series [2] concerns the molecule itself. Kind of series: dynamic light scattering; ~0.2 mg/ml, room temperature, size distribution after SEC purification.

Changes are numbered by the printed parent chain.

B1: ApoE4 N-terminal domain (NTD) as seen in the crystals grown from His-MBP-ApoE4M (domain or fragment, human, UniProt P02649 40-183, looked up)
chain: SGQRWELALGRFWDYLRWVQTLSEQVQEELLSSQVTQELRALMDETMKELKAYKSELEEQLTPVAEETRARLSKELQAAQARLGADMEDVRGRLVQYRGEVQAMLGQSTEELRVRLASHLRKLRKRLLRDADDLQKRLAVYQAG
notes: apolipoprotein E, isoform ApoE4 (R112/R158), human; only residues ~22-165 (NTD) were obtained in the structures; the five mutations lie outside that range; also called ApoE4 NTD; source: E. coli BL21(DE3), purified (Ni-NTA, SEC; no cleavage step)
With B1, the binding result in series [1] is given as “binds”.

B2: APOE3M-AP (domain or fragment, human, UniProt P02649 42-317, looked up)
chain: QRWELALGRFWDYLRWVQTLSEQVQEELLSSQVTQELRALMDETMKELKAYKSELEEQLTPVAEETRARLSKELQAAQARLGADMEDVCGRLVQYRGEVQAMLGQSTEELRVRLASHLRKLRKRLLRDADDLQKRLAVYQAGAREGAERGLSAIRERLGPLVEQGRVRAATVGSLAGQPLQERAQAWGERLRARMEEMGSRTRDRLDEVKEQVAEVRAKLEEQAQQIRLQAEAAQARLKSRFEPLAEDMQRQWAGQVEKVQAAEGTSAAPVPSDNH
notes: apolipoprotein E, isoform ApoE3, human, residues 1-23 (helices N1 and N2) deleted, with the five monomerizing mutations; Truncated variants were cloned into NdeI/BamHI of pET-21b; also called ApoEM-AP; aggregation-prone ApoEM; source: E. coli BL21(DE3), purified (Ni-NTA, 3C protease cleavage, SEC); not shown: His, N-terminal, cleaved; thioredoxin, N-terminal, cleaved
Turning to B2, the binding result in series [2] is on record as “binds”.

B3: APOE4M-AP (domain or fragment, human, UniProt P02649 42-317, looked up)
chain: B2 chain with C89R
notes: apolipoprotein E, isoform ApoE4, human, residues 1-23 (helices N1 and N2) deleted, with the five monomerizing mutations; Truncated variants were cloned into NdeI/BamHI of pET-21b; also called ApoEM-AP; aggregation-prone ApoEM; source: E. coli BL21(DE3), purified (Ni-NTA, 3C protease cleavage, SEC); not shown: His, N-terminal, cleaved; thioredoxin, N-terminal, cleaved
B3: in series [2], the binding result is reported as “binds”.
